Results on 12 sequences are retold here after a protein production outcome set (Wang et al. 2014).

The series in a line: label from the status in PepcDB records.
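Further: failed if final PepcDB status was selected cloned or expressed and not failed if soluble or beyond.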

For the sequence “MWEPACKNRTRTLAGLAPLLASIQSPSPPSVVLRLDPSTRTQALCPHPATARGNPMSRIFITGSTDGLGLAAARTLISQGHDVVLHARSRQRAAAIADTSAAALSLVIGDLASAAETRSIADQVNAFGRMDAVIHNAGIYLERSRGETPEGHAKTLAVNVLAPYLLTAWITRPDRLIYLSSGMHRSGASTLDDIDWKRRPWNASQAYSESKLYIATLAALARHWPDALSNAVDPGWVPTKMGGAGAPDDLEMGHLTQTWLATSDEGAAKVSGGYWYHRQRREAAAEVGDVGFQEALVGRLAELTGVRLFAERG”, the protein production entry is recorded as “failed”.

As to “MWFQLSSLRSILNVSTALRQVVVRTPWYAKRKSYKVLFWREITPLAIPIFLENTCVLLMGVLSTFLVSWLGKEAMAGVGLADSFNMVIMAFFAAIDLGTTVVVAFSLGKRDRRRARAAARQSLVIMTLFAVVLAVVIHYFGSEIINIVAGEATPEVKGLALTYLELTVLSYPAAAIALIGSGALRGAGNTKIPLMINGGMNILNIVISSILIYGAFSWQGLGFAGAGLGLTISRYIGAVAIIWVLMIGFNPALRIPLKSYLKPLNFGIIWEVMGIGIPASIESVLFNGGKLLTQMFVAGMGTNVIAGNFIAFSVAALINLPGNALGSASTIITGKRLGTGQIGQAERQLRHVFWMSTIVLTAIAWGTAPFAGLFASFYTQEQDVKEVVKVLLWLNAAFMPIWAAAWVLPSGFKGARDVRFAMWVSMLGMWGCRVVAGYTLGIVLGMGVVGVWLGMFLDWAVRGALFYWRLISGRWLWRYPRVKRE”, the protein production entry is “failed”.

“MWGRLLLWPLVLGFSLSGGTQTPSVYDESGSTGGGDDSTPSILPAPRGYPGQVCANDSDTLELPDSSRALLLGWVPTRLVPALYGLVLVVGLPANGLALWVLATQAPRLPSTMLLMNLATADLLLALALPPRIAYHLRGQRWPFGEAACRLATAALYGHMYGSVLLLAAVSLDRYLALVHPLRARALRGRRLALGLCMAAWLMAAALALPLTLQRQTFRLARSDRVLCHDALPLDAQASHWQPAFTCLALLGCFLPLLAMLLCYGATLHTLAASGRRYGHALRLTAVVLASAVAFFVPSNLLLLLHYSDPSPSAWGNLYGAYVPSLALSTLNSCVDPFIYYYVSAEFRDKVRAGLFQRSPGDTVASKASAEGGSRGMGTHSSLLQ”: the protein production result was “failed”.

In the case of “MWHSIEQAISVETGKSFYISEKKEISTRPASSSSFTCSYDNKEPPPNLSFKITDGHRSYFLKINNKDYLENFQAEAYSLKQLNSLANIASPNVTAIGTSLDKSFLVLDYIDFSKAKPMLWYQLGQQLAQMHYENRHGQFGWQHDNFIGSTIQPNHWSSNWTTFFSDQRIAWQLQLLSERSIMLGNIEHITQVCHDALLHHQVSPCLVHGDLWQGNTGFSGEKAMIFDPACYYGDREVDIAMTELFGHFPDDFYHGYQAEYPLDDGYEQRKLVYNFYHILNHANIFGGIYIDQAKATLSRIMSLPLHLEHHHHHH”, the protein production result is recorded as “failed”.

“MWLRRKRAPVNGVVTLDRRHLYILPTRGGIGFSVLLATMLLTSLNYAISLGFALTFLLAGIGMGCMWMAYRNLLDLRVSAGPVTPAFVGECAIFTLHVDNQDAAARIGIEARTPLSGADTETAALTLDGVSSGTLPVRLSAIRRGRLVLPRVTLSSRFPFGLFRVWSYADLGLATVVYPAPEASPPPLPRHPQSDDADDGAASFAADDGIDQLRRYRPGDPLHRIAWKHSARTGKWLTRSGHTPQQPSCWIDWNTLPPAMDTEARLSRLCAWVLMAGEVSEIGLRLPGVEITPGRGSAHVRACLEALALWPERRAR”: the protein production entry is recorded as “failed”.

Consider “MWNATPSEEPGFNLTLADLDWDASPGNDSLGDELLQLFPAPLLAGVTATCVALFVVGIAGNLLTMLVVSRFRELRTTTNLYLSSMAFSDLLIFLCMPLDLVRLWQYRPWNFGDLLCKLFQFVSESCTYATVLTITALSVERYFAICFPLRAKVVVTKGRVKLVIFVIWAVAFCSAGPIFVLVGVEHENGTDPWDTNECRPTEFAVRSGLLTVMVWVSSIFFFLPVFCLTVLYSLIGRKLWRRRRGDAVVGASLRDQNHKQTVKMLAVVVFAFILCWLPFHVGRYLFSKSFEPGSLEIAQISQYCNLVSFVLFYLSAAINPILYNIMSKKYRVAVFRLLGFEPFSQRKLSTLKDESSRAWTESSINT”, for which the protein production entry is reported as “failed”.

Consider “MWNATPSEEPGFNLTLADLDWDASPGNDSLGDELLQLFPAPLLAGVTATCVALFVVGIAGNLLTMLVVSRFRELRTTTNLYLSSMAFSDLLIFLCMPLDLVRLWQYRPWNFGDLLCKLFQFVSESCTYATVLTITALSVERYFAICFPLRAKVVVTKGRVKLVIFVIWAVAFCSAGPIFVLVGVEHENGTDPWDTNECRPTEFAVRSGLLTVMVWVSSIFFFLPVFCLTVLYSLIGRKLWRRRRGDAVVGASLRDQNHKQTVKMLGGSQRALRLSLAGPILSLCLLPSL”, for which the protein production entry is “failed”.

In the case of “MWNLTRRQWRQILVTVILALAVLLFFLWPLPKYIEGPGEADNLKSFVTVDKHPDKHKGKYMITSVALAQARPVSYLYAKFNPYYSIESVASVTGGESNATYDKVQNFYMKSAINESIYTAYRAAHKTVKRHYLGIYVLSVDRQSPFAQALKVGDTVTEVNGHHFNSMTGYQRYIQRQKVGQRATITYQRNGKTHHVTAKLMRLPTKKAGIGITLTDNVKVSARPKVQVNPGNIGGPSGGLMFSLQIYTQVTGQDLRHGRKIAGTGTVDGDGNVGEIGGIDKKIIAAKRAGATVFFAPYVKPTKLLLKYEEQHQTNYQLAKATAKKYAPNMKVVPVKSFDDAVHYLRTHR”, the protein production result is reported as “failed”.

Take “MWPDRRLIDLFKTEFPIVLAPMAGVMDAELVIAAAQGGALGSLPCAMLSAEKAREQVGLIRQRVKAPVNMNFFCHTPVDLTPEAEARWKQRLAGYYREHGLDPAAPISAANRAPFDAAFCEVVEELKPDVVSFHFGLPEQELLKRVKAAGSLVISSATTVKEAVWLERHGADAVIAQGAEAGGHRGMFLTDKIAEQPGTFALVPQVADAVKVPVIAAGGIADGRGIAAAFALGASGVQIGSAYLRCPESKVSAAGRAALAEGRDDSTVITNVMTGRPARGVQNRLMREAGPISPDAPPFPHAATALGPLKAAAEKQGRVDFTNLWAGQAIALGRELPAAELTRDLAKSALARMKALAG”: the protein production result was “failed”.

On to “MWPQDPSRKEVLRFAVSCRILTLMLQALFNAIIPDHHAEAFSPPRLAPSGFVDQLVEGLLGGLSHWDAEHFLFIAEHGYLYEHNFAFFPGFPLALLVGTELLRPLRGLLSLRSCLLISVASLNFLFFMLAAVALHDLGCLVLHCPHQSFYAALLFCLSPANVFLAAGYSEALFALLTFSAMGQLERGRVWTSVLLFAFATGVRSNGLVSVGFLMHSQCQGFFSSLTMLNPLRQLFKLMASLFLSVFTLGLPFALFQYYAYTQFCLPGSARPIPEPLVQLAVDKGYRIAEGNEPPWCFWDVPLIYSYIQDVYWNVGFLKYYELKQVPNFLLAAPVAILVAWATWTYVTTHPWLCLTLGLQRSKNNKTLEKPDLGFLSPQVFVYVVHAAVLLLFGGLCMHVQVLTRFLGSSTPIMYWFPAHLLQDQEPLLRSLKTVPWKPLAEDSPPGQKVPRNPIMGLLYHWKTCSPVTRYILGYFLTYWLLGLLLHCNFLPWT”, for which the protein production result was “failed”.

For “MWQLLSRLNKNLVLTIPAMMAAGFVFGLVTETGFLKELIIPFTFLMVYPMMVTLKLKKVLEGGDGKAQLFTQFINFAVVPFVAFGLGRLFFADRPYMALGLLLAALVPTSGMTISWTGFARGNLEAAVKMTVVGLILGSIATPFYVQALMGAHVEVDMTGIMKQIAVIVFLPMAVGYATQRYLIAKHGQKGFQEQWAPRFPCLSTLGVLGIVFIAIALKAQAIAARPQDLLAILLPLAILYGINYSLSTVVGRLFLPRGDAIALAYGTVMRNLSIALAVAMNAFGKAGSDAALVIALAYIIQVQSAAWYVKFTGTLFGEAPAPSCPAPRRN”, the protein production entry is “failed”.

“MWSFIQKIFKALIIAPLDFITKYFKSFVLLLIVLVFFSAKESAPSAPPNLAKLYLNGAIFSTEDFDKEVDKILKTPSIKGVLLLIDSPGGAVSASVELSEKIADLKQKMPVLAYARGVMASGSYYAGMQASEVYASKASLIGSIGVIFSGANVENLLNKVGVATQGVHAGEYKEIGTFTRAWKPNEKDFLQNLVNEQYQMFVNDVAKARKLDAKDYKDFAEGKVFSAQKALKLKLIDKISTIKQAQDRLMELSKVKKAYWLEKSPMERFIEKATQSATNIITQAFGYQLLMR”: the protein production entry is given as “failed”.
